{
  "source": "the supplement of paper PMC9112550",
  "about": "“Optimization of the antimicrobial peptide Bac7 by deep mutational scanning” (BMC Biology, 2022);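 note: peptides expressed intracellularly from a pBAD plasmid library in pooled LB shake-flask culture, induced with 0.3% L-arabinose, DNA abundance read by NGS, three biological replicates, DESeq2 with apeglm shrinkage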",
  "data": [
    {"tested_on": "Escherichia coli TOP10", "experiment": "shrunken log2 fold change of peptide-encoding DNA abundance (4.5 h post-induction vs induction); higher = less antimicrobial activity (less host growth inhibition)", "settings": "time post-induction: 4.5 h; library: site-saturation at positions 5, 18, 19, 20", "values": [
      {"sequence": "RRIRCRPPRLPRPRPRPHKNPRP", "shrunken log2 fold change": -0.418},
      {"sequence": "RRIRCRPPRLPRPRPRPYTCPRP", "shrunken log2 fold change": -0.794},
      {"sequence": "RRIRCRPPRLPRPRPRPHEGPRP", "shrunken log2 fold change": -0.172},
      {"sequence": "RRIRFRPPRLPRPRPRPSAPPRP", "shrunken log2 fold change": -0.0675},
      {"sequence": "RRIRERPPRLPRPRPRPGQFPRP", "shrunken log2 fold change": -0.295},
      {"sequence": "RRIRIRPPRLPRPRPRPCWQPRP", "shrunken log2 fold change": -0.211},
      {"sequence": "RRIRCRPPRLPRPRPRPDCRPRP", "shrunken log2 fold change": -0.195},
      {"sequence": "RRIRWRPPRLPRPRPRPVGGPRP", "shrunken log2 fold change": 0.494},
      {"sequence": "RRIRRRPPRLPRPRPRPRHHPRP", "shrunken log2 fold change": 0.0826},
      {"sequence": "RRIRIRPPRLPRPRPRPWDHPRP", "shrunken log2 fold change": 0.0393},
      {"sequence": "RRIRFRPPRLPRPRPRPIWGPRP", "shrunken log2 fold change": 0.0125},
      {"sequence": "RRIRPRPPRLPRPRPRPTVFPRP", "shrunken log2 fold change": 0.0272},
      {"sequence": "RRIRHRPPRLPRPRPRPKHYPRP", "shrunken log2 fold change": -0.577},
      {"sequence": "RRIRFRPPRLPRPRPRPWVAPRP", "shrunken log2 fold change": -0.139},
      {"sequence": "RRIRGRPPRLPRPRPRPHPNPRP", "shrunken log2 fold change": 0.547},
      {"sequence": "RRIRLRPPRLPRPRPRPAEFPRP", "shrunken log2 fold change": -0.011},
      {"sequence": "RRIRDRPPRLPRPRPRPDLIPRP", "shrunken log2 fold change": 0.126},
      {"sequence": "RRIRSRPPRLPRPRPRPIWVPRP", "shrunken log2 fold change": 0.0576},
      {"sequence": "RRIRSRPPRLPRPRPRPISQPRP", "shrunken log2 fold change": -0.387},
      {"sequence": "RRIRKRPPRLPRPRPRPSDFPRP", "shrunken log2 fold change": -0.00266},
      {"sequence": "RRIRDRPPRLPRPRPRPSQHPRP", "shrunken log2 fold change": -0.343},
      {"sequence": "RRIRCRPPRLPRPRPRPSIKPRP", "shrunken log2 fold change": -0.597},
      {"sequence": "RRIRMRPPRLPRPRPRPPDEPRP", "shrunken log2 fold change": 2.96},
      {"sequence": "RRIRFRPPRLPRPRPRPKGAPRP", "shrunken log2 fold change": -0.0295},
      {"sequence": "RRIRERPPRLPRPRPRPVNYPRP", "shrunken log2 fold change": -0.0115},
      {"sequence": "RRIRQRPPRLPRPRPRPKKKPRP", "shrunken log2 fold change": -0.0791},
      {"sequence": "RRIRKRPPRLPRPRPRPLHEPRP", "shrunken log2 fold change": 1.06},
      {"sequence": "RRIRYRPPRLPRPRPRPPYKPRP", "shrunken log2 fold change": -0.23},
      {"sequence": "RRIRCRPPRLPRPRPRPVYMPRP", "shrunken log2 fold change": -0.788},
      {"sequence": "RRIRNRPPRLPRPRPRPPCGPRP", "shrunken log2 fold change": 0.317},
      {"sequence": "RRIRRRPPRLPRPRPRPPHKPRP", "shrunken log2 fold change": 1.77},
      {"sequence": "RRIRFRPPRLPRPRPRPYKRPRP", "shrunken log2 fold change": -0.827},
      {"sequence": "RRIRWRPPRLPRPRPRPQKIPRP", "shrunken log2 fold change": -0.178},
      {"sequence": "RRIRGRPPRLPRPRPRPVYRPRP", "shrunken log2 fold change": 0.15},
      {"sequence": "RRIRARPPRLPRPRPRPLWYPRP", "shrunken log2 fold change": -0.278},
      {"sequence": "RRIRNRPPRLPRPRPRPPECPRP", "shrunken log2 fold change": 0.015},
      {"sequence": "RRIRSRPPRLPRPRPRPMGLPRP", "shrunken log2 fold change": 0.101},
      {"sequence": "RRIRDRPPRLPRPRPRPLNIPRP", "shrunken log2 fold change": -0.161},
      {"sequence": "RRIRWRPPRLPRPRPRPQFIPRP", "shrunken log2 fold change": -0.211},
      {"sequence": "RRIRIRPPRLPRPRPRPFRLPRP", "shrunken log2 fold change": -0.223},
      {"sequence": "RRIRSRPPRLPRPRPRPECEPRP", "shrunken log2 fold change": -0.0828},
      {"sequence": "RRIRDRPPRLPRPRPRPRWNPRP", "shrunken log2 fold change": 0.0976},
      {"sequence": "RRIRIRPPRLPRPRPRPIMPPRP", "shrunken log2 fold change": -0.825},
      {"sequence": "RRIRNRPPRLPRPRPRPHLWPRP", "shrunken log2 fold change": 0.0922},
      {"sequence": "RRIRVRPPRLPRPRPRPNPNPRP", "shrunken log2 fold change": -0.108},
      {"sequence": "RRIRKRPPRLPRPRPRPMHYPRP", "shrunken log2 fold change": -0.0252},
      {"sequence": "RRIRARPPRLPRPRPRPPMMPRP", "shrunken log2 fold change": 0.421},
      {"sequence": "RRIRRRPPRLPRPRPRPNQRPRP", "shrunken log2 fold change": 0.269},
      {"sequence": "RRIRGRPPRLPRPRPRPPCAPRP", "shrunken log2 fold change": 0.978},
      {"sequence": "RRIRHRPPRLPRPRPRPLQEPRP", "shrunken log2 fold change": -0.331},
      {"sequence": "RRIRTRPPRLPRPRPRPEQVPRP", "shrunken log2 fold change": -0.00471},
      {"sequence": "RRIRCRPPRLPRPRPRPMTPPRP", "shrunken log2 fold change": 0.377},
      {"sequence": "RRIRTRPPRLPRPRPRPRNIPRP", "shrunken log2 fold change": -0.623},
      {"sequence": "RRIRQRPPRLPRPRPRPMKWPRP", "shrunken log2 fold change": 0.273},
      {"sequence": "RRIRVRPPRLPRPRPRPMCVPRP", "shrunken log2 fold change": 0.103},
      {"sequence": "RRIRWRPPRLPRPRPRPMQCPRP", "shrunken log2 fold change": 0.0434},
      {"sequence": "RRIRKRPPRLPRPRPRPQETPRP", "shrunken log2 fold change": -0.0167},
      {"sequence": "RRIRQRPPRLPRPRPRPVWTPRP", "shrunken log2 fold change": 0.0102},
      {"sequence": "RRIRARPPRLPRPRPRPIVQPRP", "shrunken log2 fold change": 0.0602},
      {"sequence": "RRIRLRPPRLPRPRPRPNFYPRP", "shrunken log2 fold change": -0.141},
      {"sequence": "RRIRLRPPRLPRPRPRPCAFPRP", "shrunken log2 fold change": -0.295},
      {"sequence": "RRIRPRPPRLPRPRPRPQQQPRP", "shrunken log2 fold change": -0.17},
      {"sequence": "RRIRHRPPRLPRPRPRPWMHPRP", "shrunken log2 fold change": 0.0155},
      {"sequence": "RRIRQRPPRLPRPRPRPHENPRP", "shrunken log2 fold change": -0.0313},
      {"sequence": "RRIRWRPPRLPRPRPRPRLFPRP", "shrunken log2 fold change": 0.432},
      {"sequence": "RRIRKRPPRLPRPRPRPVTSPRP", "shrunken log2 fold change": 0.0678},
      {"sequence": "RRIRSRPPRLPRPRPRPYCTPRP", "shrunken log2 fold change": -0.256},
      {"sequence": "RRIRKRPPRLPRPRPRPAARPRP", "shrunken log2 fold change": 0.742},
      {"sequence": "RRIRFRPPRLPRPRPRPEDKPRP", "shrunken log2 fold change": -0.0503},
      {"sequence": "RRIRHRPPRLPRPRPRPRWFPRP", "shrunken log2 fold change": 0.161},
      {"sequence": "RRIRVRPPRLPRPRPRPSPYPRP", "shrunken log2 fold change": -0.409},
      {"sequence": "RRIRPRPPRLPRPRPRPENPPRP", "shrunken log2 fold change": 0.0677},
      {"sequence": "RRIRNRPPRLPRPRPRPLLRPRP", "shrunken log2 fold change": -0.267},
      {"sequence": "RRIRSRPPRLPRPRPRPPGYPRP", "shrunken log2 fold change": 0.0642},
      {"sequence": "RRIRKRPPRLPRPRPRPGGVPRP", "shrunken log2 fold change": 0.656}
    ]}
  ]
}
